Test results: patent US20230295335A1

Legend:
[1] = target: neonatal Fc receptor (FcRn), His-tagged (SinoBiological, cat. no. CT009-H08H-B) (UniProt P55899); assay: SPR kinetics assay at pH 6.0; His-tagged FcRn captured on anti-His chip, antibody 0-100 nM
[2] = target: neonatal Fc receptor (FcRn), His-tagged (SinoBiological, cat. no. CT009-H08H-B) (UniProt P55899); assay: SPR kinetics assay at pH 6.0; His-tagged FcRn captured on anti-His chip, antibody 0-100 nM; mean of three experiments

neonatal Fc receptor (FcRn), His-tagged (SinoBiological, cat. no. CT009-H08H-B), sequence (P55899 24-297 limits assumed, form in doubt): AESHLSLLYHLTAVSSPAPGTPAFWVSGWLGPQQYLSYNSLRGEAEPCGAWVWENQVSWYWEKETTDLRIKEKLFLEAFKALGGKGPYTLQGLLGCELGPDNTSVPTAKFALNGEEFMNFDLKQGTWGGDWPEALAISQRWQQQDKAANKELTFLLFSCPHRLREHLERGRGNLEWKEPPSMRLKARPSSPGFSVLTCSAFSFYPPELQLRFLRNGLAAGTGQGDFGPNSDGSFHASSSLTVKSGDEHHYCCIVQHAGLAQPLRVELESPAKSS

- koff [1]: 0.0322 s⁻¹
- kon [1]: 1.1e+06 M⁻¹ s⁻¹
- Kd [2]: 0.029 µM
Substance: IgG1-b12 (antibody)
